pKd: −log10 of the molar value.
The substances below were run against human Ptch (SEQ ID NO:4) (human) (UniProt Q13635) (assay: Scatchard analysis of displacement of 125I-Shh from 293 cells expressing Ptch).

Row | Substance | pKd
1 | Dhh (SEQ ID NO:13) (from UniProt Q61488 23-198) (ligand) | 8.59
2 | Ihh (SEQ ID NO:29) (from UniProt P97812 28-202) (ligand) | 9.00
3 | Shh (SEQ ID NO:14), 19 kD amino terminal fragment of murine Shh (from UniProt Q62226 25-198) (ligand) | 9.00

From US20020156245A1
